Assay results reported in the supplement of paper PMC9732359.
± gives the uncertainty stated by the source.

Assay: protein stability index of a GFP-peptide fusion (yeast GPS) (PSI 1-4); higher = more stable; sorted into four equal gates, so the index is relative within each strain
Settings: pdr5∆
Outline: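 Sequencing reads from sorted gates were used to score each peptide. The library consisted of tiled 17-residue yeast protein peptides fused downstream of GFP on a Cherry-expressing plasmid, pooled and carried in yeast. Mid-log cultures in leucine-free medium were split into four equal gates by GFP/Cherry ratio, and each gate's plasmids were PCR-amplified and Illumina-sequenced. The protein stability index adds up, over all gates, the read frequency multiplied by the gate number.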

Sequence	protein stability index
PRFNRDNKVSPAAAAKK [RPS26B]	2.5 ± 0.21
PSADGADKKDDSESNSE [ITC1]	3.11 ± 0.065
PSAEIREAYIENFAKGE [SWP82]	2.63 ± 0.084
PSASLKLHHDLKLCLGD [YMR129W/POM152]	3.09 ± 0.07
PSDVNIDVMKSQIIPLM [SNU114]	1.82 ± 0.053
PSENDVFYRMQQLRRAL [RPO31]	1.94 ± 0.046
PSFGKRHNKSHTLCNRC [RPL37A]	2.84 ± 0.08
PSIIFIDEVDSIATKRF [RPT3]	3.1 ± 0.067
PSKLVITKLHLDKDRKA [RPL26A]	1.75 ± 0.086
PSLEKSSFTFGSTTIEK [YLR335W/NUP2]	2.65 ± 0.086
PSLNPIPHFIDNNSSLN [PRP8]	2.52 ± 0.05
PSMMAPLRDNGLLDESP [YML031W/NDC1]	2.79 ± 0.29
PSPISHVAEIRSALEKG [RPB2]	1.93 ± 0.066
PSPKKVAIDQDKITLHD [SIR4]	2.53 ± 0.064
PSQGMVVEISNGNTSSK [FAS1]	3.27 ± 0.051
PSSMATLLKNLRKKLNF [YJR042W/NUP85]	2.73 ± 0.075
PSTNAQNVNVPSAFNFT [YOR098C/NUP1]	2.73 ± 0.054
PSYYYYVDPETTYTYQQ [ROX3]	3.09 ± 0.079
PTGGKAKLSEGTSFRRK [RPS27A]	3.33 ± 0.11
PTGKEEGDGAKAAISFG [YJL041W/NSP1]	3.04 ± 0.1
PTLGERLDNLQDIKKAK [DSN1]	1.25 ± 0.041
PTMYTRLCICSGMLFEM [SIN4]	1.28 ± 0.041
PTTTTGGLFGNSAQNNS [YGR119C/NUP57]	3.18 ± 0.097
PVDVDFNLDLDDIVSHQ [REC8]	3.4 ± 0.12
PVPESAGKADTSIRLEG [SRB4]	3.19 ± 0.079
PVSLLNSQLVGKPHFSL [PCI8]	2.37 ± 0.074

Sequence	protein stability index
PVSPLDIYSDEASAQKK [RPS2]	2.93 ± 0.093
PVVINLDAKNKVFVPPK [RPO31]	3.13 ± 0.13
PWGDYLQLETPAEVGRA [BRR2]	1.8 ± 0.09
PYAQKPLQGIFHNAVFN [QCR8]	2.52 ± 0.046
PYDSNNSNTNLNSLSPQ [SWI1]	2.87 ± 0.051
PYLLPYILEAEAAAKEK [QCR7]	1.26 ± 0.062
PYPGSPMHSIMPNSSLQ [DSN1]	2.88 ± 0.052
PYPKSRYNRAVPDSKIR [RPL10]	3.19 ± 0.052
QAIAKNNPQVVNAITVA [SNF5]	2.02 ± 0.043
QAINLGQVVLTPLTFAL [RPL14A]	1.43 ± 0.049
QAQAQAHAQHQPSQQPQ [GAL11]	2.972 ± 0.019
QARMMQQQSADHDDSTD [NSL1]	2.74 ± 0.058
QAVETVGQAGRPKKITG [RPN1]	2.74 ± 0.095
QDHFHRLNYLYQISAYQ [RPR2]	2.43 ± 0.04
QDKSKKIMNVTTDSLTK [YMR129W/POM152]	2.97 ± 0.06
QDNKQLYQIWIVMVWLK [YDL116W/NUP84]	2.62 ± 0.049
QDRIQDVKLVLASNFDN [MED1]	2.67 ± 0.06
QDSTSENVKIINYLLTL [RPN2]	3.1 ± 0.079
QEASQVTFIFGELKRGN [MED11]	2.75 ± 0.052
QEEEGELEHLTKKSKLE [DSN1]	3.17 ± 0.056
QELELPGEFVTAIAHSI [SNF5]	2.37 ± 0.038
QENSSKIITLDLSNYAE [SMC1]	3.34 ± 0.053
QEQYQTNTFEGSGNNNE [SNU114]	3.59 ± 0.23
QFLEQGLSIHPTQITQY [SRP68]	2.22 ± 0.076
QFNEFIQIMANIDQEGS [PGD1]	2.37 ± 0.067
QFQKARNNVMLLIATNL [SRB8]	1.81 ± 0.1

Sequence	protein stability index
QFVPELKEFTAKLRKEL [FAS2]	1.61 ± 0.043
QGVYGAVYETLISRMIF [BRR2]	1.81 ± 0.093
QHIKVFKLDKDTSNWEL [YGL100W/SEH1]	3.15 ± 0.12
QHQEEPLLSLDVTPISM [RPN4]	2.97 ± 0.16
QHYLDTATAPRLFDKLK [QCR6]	3.04 ± 0.045
QIAFDLVSSASQQLLEI [RPN2]	2.17 ± 0.063
QIFCVFSGKGVHKLRHY [GRR1]	2.88 ± 0.061
QIFKVAGENAPSIVFID [RPT2]	1.2 ± 0.059
QILENYNALFQQNIKFR [YJL039C/NUP192]	2.79 ± 0.065
QIPTVSSPLGFEETKLS [SIR4]	3.05 ± 0.17
QIQLAESELSLLEETQA [SMC4]	3.25 ± 0.063
QIRSADEPMTTFYKCVN [RPC11]	2.54 ± 0.078
QKCFKLTHRLGGDTCSS [POP1]	1.85 ± 0.056
QKGITSYAVSPYAQKPL [QCR8]	3.05 ± 0.14
QKNDTAAFKDIAKRQFK [RRP40]	3.33 ± 0.12
QKNMNDLLRSQLTSLEK [YIL149C/MLP2]	2.17 ± 0.056
QKRIENGGNSVITLAEY [SRP68]	2.89 ± 0.081
QKRNAHGYFLQDKEKID [ITC1]	3.38 ± 0.071
QLDAYGEKKVGSNGELF [SWP82]	3.29 ± 0.089
QLDLCKLYFQLFLNTGC [SRP68]	1.4 ± 0.042
QLDLTGIFLHGKIPTLK [PRP8]	1.43 ± 0.058
QLIDQFEWDISNSDNCP [SNF5]	3.18 ± 0.12
QLKAEEKKILNQFLKIK [SMC1]	3.19 ± 0.1
QLKMVNERELNVFARLS [RPC82]	2 ± 0.2
QLKNGLLEKYNTNELKE [MTR3]	2.69 ± 0.056
QLLMGDIPELSFFHQSN [RPN3]	2.2 ± 0.054

Sequence	protein stability index
QLLNGQKIVVVRAEELN [RPL16A]	1.31 ± 0.051
QLNLNNLTPANILNMSM [PGD1]	3.19 ± 0.07
QLTSLEKDCSLRAIEKN [YIL149C/MLP2]	2.8 ± 0.064
QLVLRGLLSQAIGCIER [YJR042W/NUP85]	2.15 ± 0.073
QLYKRDPVSGAILVPMT [YJR042W/NUP85]	1.75 ± 0.24
QMIQQRHQQLLRSRLQQ [SNF5]	2.14 ± 0.15
QNGQQPPTTSNLIIFLY [YML103C/NUP188]	2.78 ± 0.04
QNIILRSTMMKFLKIAS [RPN3]	2.42 ± 0.067
QNKEIKAERVEDQKVVD [RPL6A]	3.44 ± 0.066
QNPLNKSQNTALPSTHK [SIR4]	2.88 ± 0.049
QNTSNMNAGGLFGAKPQ [YGR119C/NUP57]	3.05 ± 0.063
QNTVPNVLNQINQIFSP [GAL11]	2.5 ± 0.033
QNVISLGSLTVEDYLSS [RPC82]	2.84 ± 0.078
QPDANKKKRSRTSATRE [ISW2]	3.38 ± 0.079
QPDENTKEMDEVEEDDE [SWI3]	3.49 ± 0.15
QPHIFNNPKVKTSKRTK [RPS11A]	2.81 ± 0.061
QPIVTGTSVISMKYDNG [PRE4]	2.69 ± 0.23
QPSDVMFNDLNSMDISM [MED2]	2.99 ± 0.053
QPTGLLKGLNGFPSAPQ [YMR153W/NUP53]	3.3 ± 0.12
QPVNINLDSSITQDGKF [YMR129W/POM152]	3.18 ± 0.084
QQIPLLCYMAPMTVKLV [POP3]	1.57 ± 0.047
QQLQVLARYLKMDLDNG [FAS2]	2.04 ± 0.089
QQQLVNQMKVAPIPKQL [GAL11]	2.96 ± 0.041
QQQQIQVPLQQTQAIAQ [YGR119C/NUP57]	2.82 ± 0.048
QQQQQQNNSTGSSSIIY [SSN2]	2.99 ± 0.062
QQQQQQQQPQPQYNMNM [PGD1]	2.79 ± 0.065
